Assay results as given in article PMC9663175, “Cryo-EM structures reveal the activation and substrate recognition mechanism of human enteropeptidase” (Nature Communications, 2022).

T1: hEP heavy chain (residues 182-784 of human enteropeptidase, after trypsin activation) (human, UniProt P98073 182-784, N-linked glycans)
T1 construct: human enteropeptidase heavy chain of the 182-1019 construct (LDLR, CUB, MAM, CUB2, LDLR2, SRCR domains); C-terminal limit 784 follows from Ile785 as the new N-terminus of the light chain; Stays linked to the light chain by the disulfide Cys772-Cys896; source: HEK293F, transfected, secreted, purified from supernatant (Ni-NTA) as the 182-1019 zymogen, then cleaved with trypsin
T1 sequence (looked up): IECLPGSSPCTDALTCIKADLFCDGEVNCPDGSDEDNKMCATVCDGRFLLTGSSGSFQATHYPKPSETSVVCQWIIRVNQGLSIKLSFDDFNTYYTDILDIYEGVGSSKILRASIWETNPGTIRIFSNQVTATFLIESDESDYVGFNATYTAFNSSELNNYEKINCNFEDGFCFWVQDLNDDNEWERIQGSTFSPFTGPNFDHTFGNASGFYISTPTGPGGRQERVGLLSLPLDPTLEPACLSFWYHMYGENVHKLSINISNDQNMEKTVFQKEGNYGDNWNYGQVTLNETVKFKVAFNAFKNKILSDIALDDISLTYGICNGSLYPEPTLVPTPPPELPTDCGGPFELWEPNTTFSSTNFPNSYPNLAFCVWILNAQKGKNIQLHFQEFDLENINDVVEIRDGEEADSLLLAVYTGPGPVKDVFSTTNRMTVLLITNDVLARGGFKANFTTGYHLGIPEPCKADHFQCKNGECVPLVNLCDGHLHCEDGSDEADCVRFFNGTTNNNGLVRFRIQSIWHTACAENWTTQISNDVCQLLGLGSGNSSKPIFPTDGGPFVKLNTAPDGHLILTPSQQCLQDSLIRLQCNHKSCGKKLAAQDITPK


molecular target: T1, hEP heavy chain (residues 182-784 of …); assay: cryo-EM structure; trypsin-activated two-chain hEP (residues 182-1019), heavy and light chains linked by a disulfide; wild type, catalytic-triad mutant, or wild type incubated with nafamostat; details: both partners purified

binding result	Binder
binds	hEP light chain (peptidase domain, residues 785-1019), wild type (domain or fragment, human, UniProt P98073 785-1019, looked up, N-linked glycans, human enteropeptidase light chain, N-terminus Ile785 (IVGG) after trypsin cleavage; Stays linked to the heavy chain by the disulfide Cys772-Cys896; source: HEK293F, transfected, secreted, purified from supernatant (Ni-NTA) as the 182-1019 zymogen, then cleaved with trypsin) IVGGSNAKEGAWPWVVGLYYGGRLLCGASLVSSDWLVSAAHCVYGRNLEPSKWTAILGLHMKSNLTSPQTVPRLIDEIVINPHYNRRRKDNDIAMMHLEFKVNYTDYIQPICLPEENQVFPPGRNCSIAGWGTVVYQGTTANILQEADVPLLSNERCQQQMPEYNITENMICAGYEEGGIDSCQGDSGGPLMCQENNRWFLAGVTSFGYKCALPNRPGVYARVSRFTEWIQSFLH
binds	hEP light chain (residues 785-1019) inhibited by nafamostat (domain or fragment, human, UniProt P98073 785-1019, looked up, Ser971 covalently bound to the reaction product of nafamostat; N-linked glycans, human enteropeptidase light chain, N-terminus Ile785 after trypsin cleavage; Stays linked to the heavy chain by the disulfide Cys772-Cys896) IVGGSNAKEGAWPWVVGLYYGGRLLCGASLVSSDWLVSAAHCVYGRNLEPSKWTAILGLHMKSNLTSPQTVPRLIDEIVINPHYNRRRKDNDIAMMHLEFKVNYTDYIQPICLPEENQVFPPGRNCSIAGWGTVVYQGTTANILQEADVPLLSNERCQQQMPEYNITENMICAGYEEGGIDSCQGDSGGPLMCQENNRWFLAGVTSFGYKCALPNRPGVYARVSRFTEWIQSFLH
binds	hEP^mut light chain (peptidase domain, residues 785-1019, H825A, D876A, S971A) (domain or fragment, human, UniProt P98073 785-1019, looked up, N-linked glycans, human enteropeptidase light chain, N-terminus Ile785 after trypsin cleavage, catalytic triad mutated to Ala; The light chain of m1; also called light chain of hEP^mut) IVGGSNAKEGAWPWVVGLYYGGRLLCGASLVSSDWLVSAAACVYGRNLEPSKWTAILGLHMKSNLTSPQTVPRLIDEIVINPHYNRRRKDNAIAMMHLEFKVNYTDYIQPICLPEENQVFPPGRNCSIAGWGTVVYQGTTANILQEADVPLLSNERCQQQMPEYNITENMICAGYEEGGIDSCQGDAGGPLMCQENNRWFLAGVTSFGYKCALPNRPGVYARVSRFTEWIQSFLH
